Like-named read-outs stand apart in the source and are kept apart here.
Assays:
[1] = molecular target: ELK (3% skim milk powder solution); assay: ELISA, ELK-coated control well, ~50 ng iMab per well, anti-VSV-HRP; urea-purified
[2] = molecular target: ELK (3% skim milk powder solution)
[3] = molecular target: ELK (3% skim milk powder solution); assay: ELISA, ELK-coated control well, ~5 ng iMab per well, anti-VSV-HRP; urea-purified
[4] = molecular target: chicken lysozyme (chicken), P00698; assay: ELISA vs. lysozyme, iMab dilution 1:10,000, before pH 4.8 precipitation; details: remark: other sources report otherwise
chicken lysozyme (chicken), P00698, sequence (P00698 19-147 limits assumed): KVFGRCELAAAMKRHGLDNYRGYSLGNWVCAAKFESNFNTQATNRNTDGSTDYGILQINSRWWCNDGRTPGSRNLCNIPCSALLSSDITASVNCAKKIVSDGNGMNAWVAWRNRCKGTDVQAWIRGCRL

[5] = molecular target: chicken lysozyme (chicken), P00698; assay: ELISA vs. lysozyme, iMab dilution 1:100, after precipitation at pH 4.8 and redissolving; details: remark: other sources report otherwise
[6] = molecular target: chicken lysozyme (chicken), P00698; assay: ELISA vs. lysozyme, iMab dilution 1:1000, after precipitation at pH 4.8 and redissolving; details: remark: other sources report otherwise
[7] = molecular target: chicken lysozyme (chicken), P00698; assay: ELISA vs. lysozyme, iMab dilution 1:10, before pH 4.8 precipitation; details: remark: other sources report otherwise
[8] = molecular target: chicken lysozyme (chicken), P00698; assay: ELISA vs. lysozyme, iMab dilution 1:10,000, after precipitation at pH 4.8 and redissolving; details: remark: other sources report otherwise
[9] = molecular target: chicken lysozyme (chicken), P00698; assay: ELISA, lysozyme-coated well (100 µg/ml), ~50 ng iMab per well, anti-VSV-HRP; urea-purified; details: remark: other sources report otherwise
[10] = molecular target: chicken lysozyme (chicken), P00698; assay: ELISA vs. lysozyme, iMab dilution 1:100, before pH 4.8 precipitation; details: remark: other sources report otherwise
[11] = molecular target: chicken lysozyme (chicken), P00698; assay: ELISA vs. lysozyme, iMab dilution 1:10, after precipitation at pH 4.8 and redissolving; details: remark: other sources report otherwise
[12] = molecular target: ELK (3% skim milk powder solution); assay: ELISA, ELK-coated control well, ~50 ng iMab per well, anti-VSV-HRP; heat (60 °C) purified
[13] = molecular target: chicken lysozyme (chicken), P00698; assay: ELISA, lysozyme-coated well (100 µg/ml), ~50 ng iMab per well, anti-VSV-HRP; heat (60 °C) purified; details: remark: other sources report otherwise
[14] = molecular target: chicken lysozyme (chicken), P00698; assay: ELISA vs. lysozyme, iMab dilution 1:1000, before pH 4.8 precipitation; details: remark: other sources report otherwise
[15] = molecular target: ELK (3% skim milk powder solution); assay: ELISA, ELK-coated control well, ~20 ng iMab per well, anti-VSV-HRP; urea-purified

B1: iMab1302 (designed binder, not shown: small tags and cut ends)
chain: VVKVVIKPSQNFIENGEDKKFTCRASGYTIGPKCIGWFSQNPEDDSTNVATINMGGGITYYGDSVKERFDIRRDNAKDTSTLSIDDAQPEDAGIYKCAADSTIYASYYECGHGLSTGGYGYDSEATVGVDIFVKLM
Absorbtion (450 nm) [1]: 0.045 A450

B2: iMab111 (designed binder, not shown: small tags and cut ends)
chain: NVKLVCKGGNFVENDDDLKLTCRAEGYTIGPYCMGWFRQAPNDDSTNVATINMGGGITYYGDSVKERFDIRRDNASNTVTLSMDDLQPEDSAEYNCAGDSTIYASYYECGHGLSTGGYGYDSHYRCQGTDVTVSS
Absorbtion (450 nm) [1]: 0.043 A450

B3: iMab701 (designed binder)
chain: MASTITCEASGYTIGPACVAFDTTLGNNMGTYSAPLTSTTLGVATVTCAADSTIYASYYECGHGLSTGGYGYAAFSVPSVTVNFTA
Absorbtion (450 nm) [2]: 0.069 A450

B4: iMab122 (designed binder, not shown: small tags and cut ends)
chain: NVKLVEKGGNFVENDDDLKLTCRASGRTFSSRTMGWFRQAPNDDSTNVATIRWNGGSTYYTNYGDSVKERFDIRVDQASNTVTLSMDDLQPEDSAEYNCAGTDIGDGWSGRYDYRGQGTDVTVSS
Absorbtion (450 nm) [1]: 0.051 A450

B5: iMab1300 (designed binder, not shown: small tags and cut ends)
chain: LQVDIKPSQGEISVGESKFFLCQASGYTIGPCISWFSPNGEKLNMGSSTLTIYNANIDDAGIYKCAADSTIYASYYECGHGLSTGGYGYQSEATVNVKIFQ
Absorbtion (450 nm) [1]: 0.041 A450

B6: iMab1200 (designed binder)
chain: HGLPMEKRGNFIVGQNCSLTCPASGYTIGPQCVFNCYFNSALAFSTENMGEWTLDMVFSDAGIYTMCAADSTIYASYYECGHGLSTGGYGYNPVSLGSFVVDSP
Absorbtion (450 nm) [3]: 0.04 A450

B7: iMab100 (designed binder, not shown: small tags and cut ends)
chain: NVKLVEKGGNFVENDDDLKLTCRAEGYTIGPYCMGWFRQAPNDDSTNVATINMGGGITYYGDSVKERFDIRRDNASNTVTLSMDDLQPEDSAEYNCAGDSTIYASYYECGHGLSTGGYGYDSHYRGQGTDVTVSS
Signal on Elisa [4]: 0.059
Signal on Elisa [5]: 0.263
Signal on Elisa [6]: 0.169
Signal on Elisa [7]: 0.36
Signal on Elisa [8]: 0.059
Absorbtion (450 nm) [9]: 0.494 A450
Signal on Elisa [10]: 0.228
Signal on Elisa [11]: 0.39
Absorbtion (450 nm) [12]: 0.041 A450
Absorbtion (450 nm) [13]: 0.369 A450
Signal on Elisa [14]: 0.128
Absorbtion (450 nm) [1]: 0.04 A450

B8: iMab1602 (designed binder, not shown: small tags and cut ends)
chain: AVKPVIGSKAPNFGENGDVKTIDRASGYTIGPTCGGVFFQGPTDDSTNVATINMGGGITYYGDSVKETFDIRRDNAKSTRTESYDDNQPEGLTEVKCAADSTIYASYYECGHGLSTGGYGYDVSSRLYGYDILVGTQ
Absorbtion (450 nm) [1]: 0.043 A450

B9: iMab1202 (designed binder, not shown: small tags and cut ends)
chain: IVKLVMEKRGNFENGQDCKLTIRASGYTIGPACDGFFCQFPSDDSFSTEDNMGGGITVNDAMKPQFDIRRDNAKGTWTLSMDFQPEGIYEMQCAADSTIYASYYECGHGLSTGGYGYDNPVRLGGFDVDVPDV
Absorbtion (450 nm) [1]: 0.041 A450

B10: iMab101 (designed binder, not shown: small tags and cut ends)
chain: VKLVEKGGNFVENDDDLKLTCRASGYTIGPYCMGWFRQAPNDDSTNVATINMGTVTLSMDDLQPEDSAEYNCAADSTIYASYYECGHGLSTGGYGYDSHYRGQGTDVTVSS
Absorbtion (450 nm) [15]: 0.043 A450

Source: US20060292634A1
